The nanobody polyreactivity screen of Harvey et al. (2022)

assay: yeast display, Sf9 membrane polyspecificity reagent, FACS + sequencing; frameworks hold sequencing errors
In short: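 Polyreactivity labels are assigned by the sorting gate from which each nanobody was recovered. The gates were low and high (top ~1%), set on anti-HA fluorescence for expression and streptavidin fluorescence for reagent binding. Before sorting, galactose-induced (36–48 hours) yeast display cells were stained for 1 hour at 4 °C with 10% biotinylated, detergent-solubilized Sf9 membrane reagent.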

Sequence | polyreactivity (PSR sort gate)
QVQLVESGGGLVQAGGSLRLSCAASGGIFSYYAMGWYRQAPGKERELVAAITGSGATTYYADSVKGRFTISRDNAKNTVYLQMNSLKPEDTAVYYCAADYWTAFYTLDSWGQGTQVTVSS | low polyreactivity
QVQLVESGGGLVQAGGSLRLSCAASGGIFSYYVMGWYRQAPGKEREFVASITQRGRTYYADSVKGRFTISRDNAKNTVYLQINSLKPEDTAVYYCAAGIYAFRRHREEYDYWGQGTQVTVSS | high polyreactivity
QVQLVESGGGLVQAGGSLRLSCAASGGIFTSNAMGWYRQAPGKERELVAAITKNGGRTYYADSVKGRFTISRDNAKNTVYLQMNSLKPEDTAVYYCNAAVTFRCYDYWGQGTQVTVSS | high polyreactivity
QVQLVESGGGLVQAGGSLRLSCAASGGIFVPNAMGWSRQAPGKARELVAAISYSGGRTYYADSVKGRFTISRDNAKNTVYLQMTSLKPEDTAVYYCAAEYWFVYHHYNYWGQGTQVTVSS | high polyreactivity
QVQLVESGGGLVQAGGSLRLSCAASGGIFVVYGMGWYRQAPGKERELVAAISWRGGSTYYADSVKGRFTISRDNAKNTVYLQMNSLKPEDTAVSYCAADQYYGGYDYWGQGTQVTVSS | low polyreactivity
QVQLVESGGGLVQAGGSLRLSCAASGGIFWRYAMGWYRQAPGKERELVAAISSRGGSTYYADSVKGRFTISRDNAKNTVYLQMNSLKPEDTAVYYCAAAFLSRVQGYDSWGQGTQVTVSS | high polyreactivity
QVQLVESGGGLVQAGGSLRLSCAASGGIFYHYTMGWYRQAPGKERELVASIRGSGGRTYYADSVKGRFTLSRDNAKNTVDLQMNSLKPEDTAVYYCNARGSWYQPTYDYWGQGTQVTVST | high polyreactivity
QVQLVESGGGLVQAGGSLRLSCAASGGIFYLNAMGWYRQAPRKERELVAAITGTGGNTYYADSVKGRFTISRDNAKNTVYLQMNSLKPEDTAVYYCAAAAIGVGSGPFGIGWEEYYYWGLGTQVTVSS | low polyreactivity
QVQLVESGGGLVQAGGSLRLSCAASGGIFYRNAMGWYRQAPGKERELVAAITQSGGRTYYADSVKGRFTISRDNAKNTVYLQMNSLKPEDTAVYYCAARSRKLYGHYRGAYDYWGQGTQVTVSS | high polyreactivity
QVQLVESGGGLVQAGGSLRLSCAASGGIFYVNAMGWYRQAPGKERELVAAITSDGVSTYYADSVKGRFTISRDNAKNTVYLQMNSLKPEDTAVYYCAADNGGAGYYYGYVWYDYWGQGTQVTVSS | low polyreactivity
QVQLVESGGGLVQAGGSLRLSCAASGGIGSYAMGWYRQAPGKERELVAVITAGGDSTYYADSVKGRFTISRDNAKNTVYLQMNSLKPEDTAVYYCNTVYRSKRYQYDYWGQGTQVTVSS | high polyreactivity
QVQLVESGGGLVQAGGSLRLSCAASGGIIDWYVMGWYSQARGKERELVAAISYNGGSTYYADSVKGRFTISRDNAKNTGYLQMNSLKPEDTAVYYCAAAVTWPYRYVWYDYWGQGTQVTVSS | low polyreactivity
QVQLVESGGGLVQAGGSLRLSCAASGGIIRTYARGWYRQAPGNETELVAAITTNAGSTYYADSVKGRFTISRDNAKNTVYLQMNSLKPEDTAVYYCAARWYYPYRTRYSASYGYWVQGTQVTVSS | high polyreactivity
QVQLVESGGGLVQAGGSLRLSCAASGGIIWAYAMGWYRQAPGKERELVAAISSSTGTTYYADSVKGRFTISRDNAKNTVYLQMNSLKPEDTAVYYCAAYAYIGDYVSYYGGDYWGQGTQVTVSS | low polyreactivity
QVQLVESGGGLVQAGGSLRLSCAASGGILDTYAMGWYRQAPGKERELVAAITSGGNTNYADSVKGRFTISRDNAKNTVYLQMNSLKPEDTAVYYCNVVTWYYVFRPWEYDYWGQGSQVTVSS | low polyreactivity
QVQLVESGGGLVQAGGSLRLSCAASGGILHGYAMGWYIQEPGKERELVSGITYSGDDTNYADSVKGRFTISRDNAKNTVYLQMNSLKPEDTAVYYCAAGPVWHIFTIDYVSFDDWGQGTQVTVSS | low polyreactivity
QVQLVESGGGLVQAGGSLRLSCAASGGILNRYAMGWYRQAPGKERELVAAIRWSGGSTYYADSVKGRFTISRDNAKNTVYLQMNSLKPEDTAVYYCAADVYYYHVLDFDYWGQGTLVTVSS | low polyreactivity
